# In patent US20080160570:
# B1: UBP1ΔC2 (UBP1 protease mutant) (protein)
# chain: GGFIAGLVNDGNTCFMNSVLQSLASSRELMEFLDNNVIRTYEEIEQNEHNEEGNGQESAQDEATHKKNTRKGGKVYGKHKKKLNRKSSSKEDEEKSQEPDITFSVALRDLLSALNAKYYRDKPYFKTNSLLKAMSKSPRKNILLGYDQEDAQEFFQNILAELESNVKSLNTEKLDTTPVAKSELPDDALVGQLNLGEVGTVYIPTEQIDPNSILHDKSIQNFTPFKLMTPLDGITAERIGCLQCGENGGIRYSVFSGLSLNLPNENIGSTLKLSQLLSDWSKPEIIEGVECNRCALTAAHSHLFGQLKEFEKKPEGSIPEKPINAVKDRVHQIEEVLAKPVIDDEDYKKLHTANMVRKCSKSKQILISRPPPLLSIHINRSVFDPRTYMIRKNNSKVLFKSRLNLAPWCCDINEINLDARLPMSKKEKAAQQDSSEDENIGGEYYTKLHERFEQEFEDSEEEKEYDDAEGNYASHYNHTKDISNYDPLNGEVDGVTSDDEDEYIEETDALGNTIKKRIIEHSDVENENVKDNEELQEIDNVSLDEPKINVEDQLETSSDEEDVIPAPPINYARSFSTVPATPLTYSLRSVIVHYGTHNYGHYIAFRKYRGCWWRISDETVYVVDEAEVLSTPGVFMLFYEYDFDEETGKMKDDLEAILSNNEEDDEKEQEQKGVQEPKESQEQGEGEEQEEGQEQMKFERTEDHRDISGKDVNGSHHHHHH
# B2: UBP1ΔC (UBP1 protease mutant) (protein)
# chain: GGDHLNYIWESWSEMTTNFRNNNSLSRWLPRSKFTHLDEEILKRGGFIAGLWNDGNTCFMNSWLQSLASSRELMEFLDNNWIRTYEEIEQNEHNEEGNGQESAQDEATHKKNTRKGGKWYGKHKKKLNRKSSSKEDEEKSQEPDITFSWALRDLLSALNAKYYRDKPYFKTNSLLKAMSKSPRKNILLGYDQEDAQEFFQNILAELESNWKSLNTEKLDTTPWAKSELPDDALWGQLNLGEWGTWYIPTEQIDPNSILHDKSIQNFTPFKLMTPLDGITAERIGCLQCGENGGIRYSWFSGLSLNLPNENIGSTLKLSQLLSDWSKPEIIEGWECNRCALTAAHSHLFGQLKEFEKKPEGSIPEKPINAWKDRWHQIEEWLAKPWIDDEDYKKLHTANMWRKCSKSKQILISRPPPLLSIHINRSWFDPRTYMIRKNNSKWLFKSRLNLAPWCCDINEINLDARLPMSKKEKAAQQDSSEDENIGGEYYTKLHERFEQEFEDSEEEKEYDDAEGNYASHYNHTKDISNYDPLNGEWDGWTSDDEDEYIEETDALGNTIKKRIIEHSDWENENWKDNEELQEIDNWSLDEPKINWEDQLETSSDEEDWIPAPPINYARSFSTWPATPLTYSLRSWIWHYGTHNYGHYIAFRKYRGCWWRISDETWYWWDEAEWLSTPGWFMLFYEYDFDEETGKMKDDLEAILSNNEEDDEKEQEQKGWQEPKESQEQGEGEEQEEGQEQMKFERTEDHRDISGKDWNGSHHHHHH
# Molecular target: fusion protein ubiquitin-growth hormone (hybrid polypeptide)
# Sequence (chain, as listed by the source): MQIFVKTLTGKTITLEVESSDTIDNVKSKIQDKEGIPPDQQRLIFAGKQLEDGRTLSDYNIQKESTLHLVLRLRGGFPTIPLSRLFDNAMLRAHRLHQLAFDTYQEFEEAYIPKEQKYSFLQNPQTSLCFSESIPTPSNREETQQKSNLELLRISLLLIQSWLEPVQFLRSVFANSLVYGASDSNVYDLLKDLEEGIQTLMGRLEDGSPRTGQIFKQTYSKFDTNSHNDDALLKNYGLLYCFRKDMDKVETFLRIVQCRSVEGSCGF
row,Protein,"enzymatic cleavage of the carrier protein ubiquitin from growth hormone (37° C., 1 h); amount of fusion protein per amount of enzyme"
1,B1,UBP1Δ C 2 1 µg-60 µg protein
2,B2,UBP1Δ C 1 µg-14 µg protein
